Experimental data taken from patent US20220378923A1, “BET DEGRADER” (KYOWA KIRIN CO., LTD., priority 2019, published 2022).

What was measured:
[1] = biological target: DCAF16 with HaloTag added to the C-terminal (expressed from plasmid pFC27K_DCAF16) (human) (UniProt Q9NXF7); test: NanoBRET in HEK293 cells, Nluc-BRD2 and DCAF16-HaloTag with 618 Ligand, MLN4924; 1.0 umol/L comparative compound 1 (compound P3, known bivalent BET inhibitor)
[2] = biological target: DCAF16 with HaloTag added to the C-terminal (expressed from plasmid pFC27K_DCAF16) (human) (UniProt Q9NXF7); test: NanoBRET in HEK293 cells, Nluc-BRD2 and DCAF16-HaloTag with 618 Ligand, bortezomib; 10 umol/L compound 7p; mean of n=3
[3] = biological target: DCAF16 with HaloTag added to the C-terminal (expressed from plasmid pFC27K_DCAF16) (human) (UniProt Q9NXF7); test: NanoBRET in HEK293 cells, Nluc-BRD2 and DCAF16-HaloTag with 618 Ligand, bortezomib; 10 umol/L compound 8a; mean of n=3
[4] = biological target: DCAF16 with HaloTag added to the C-terminal (expressed from plasmid pFC27K_DCAF16) (human) (UniProt Q9NXF7); test: NanoBRET in HEK293 cells, Nluc-BRD2 and DCAF16-HaloTag with 618 Ligand, MLN4924; 1.0 umol/L compound 1h
[5] = biological target: DCAF16 with HaloTag added to the C-terminal (expressed from plasmid pFC27K_DCAF16) (human) (UniProt Q9NXF7); test: NanoBRET in HEK293 cells, Nluc-BRD2 and DCAF16-HaloTag with 618 Ligand, bortezomib; DMSO control without test compound; mean of n=3
[6] = biological target: DCAF16 with HaloTag added to the C-terminal (expressed from plasmid pFC27K_DCAF16) (human) (UniProt Q9NXF7); test: NanoBRET in HEK293 cells, Nluc-BRD2 and DCAF16-HaloTag with 618 Ligand, bortezomib; 10 umol/L compound 6k; mean of n=3
[7] = biological target: DCAF16 with HaloTag added to the C-terminal (expressed from plasmid pFC27K_DCAF16) (human) (UniProt Q9NXF7); test: NanoBRET in HEK293 cells, Nluc-BRD2 and DCAF16-HaloTag with 618 Ligand, MLN4924; 1.0 umol/L compound 15f
[8] = biological target: DCAF16 with HaloTag added to the C-terminal (expressed from plasmid pFC27K_DCAF16) (human) (UniProt Q9NXF7); test: NanoBRET in HEK293 cells, Nluc-BRD2 and DCAF16-HaloTag with 618 Ligand, MLN4924; 1.0 umol/L compound 7p
[9] = biological target: DCAF16 with HaloTag added to the C-terminal (expressed from plasmid pFC27K_DCAF16) (human) (UniProt Q9NXF7); test: NanoBRET in HEK293 cells, Nluc-BRD2 and DCAF16-HaloTag with 618 Ligand, MLN4924; DMSO control without test compound
[10] = biological target: DCAF16 with HaloTag added to the C-terminal (expressed from plasmid pFC27K_DCAF16) (human) (UniProt Q9NXF7); test: NanoBRET in HEK293 cells, Nluc-BRD2 and DCAF16-HaloTag with 618 Ligand, bortezomib; 10 umol/L compound 1h; mean of n=3
[11] = biological target: DCAF16 with HaloTag added to the C-terminal (expressed from plasmid pFC27K_DCAF16) (human) (UniProt Q9NXF7); test: NanoBRET in HEK293 cells, Nluc-BRD2 and DCAF16-HaloTag with 618 Ligand, MLN4924; 1.0 umol/L compound 6k
[12] = biological target: DCAF16 with HaloTag added to the C-terminal (expressed from plasmid pFC27K_DCAF16) (human) (UniProt Q9NXF7); test: NanoBRET in HEK293 cells, Nluc-BRD2 and DCAF16-HaloTag with 618 Ligand, bortezomib; 10 umol/L compound 15f; mean of n=3
[13] = biological target: DCAF16 with HaloTag added to the C-terminal (expressed from plasmid pFC27K_DCAF16) (human) (UniProt Q9NXF7); test: NanoBRET in HEK293 cells, Nluc-BRD2 and DCAF16-HaloTag with 618 Ligand, MLN4924; 1.0 umol/L compound 8a
[14] = biological target: DCAF16 with HaloTag added to the C-terminal (expressed from plasmid pFC27K_DCAF16) (human) (UniProt Q9NXF7); test: NanoBRET in HEK293 cells, Nluc-BRD2 and DCAF16-HaloTag with 618 Ligand, bortezomib; 10 umol/L compound 15a; mean of n=3
[15] = biological target: DCAF16 with HaloTag added to the C-terminal (expressed from plasmid pFC27K_DCAF16) (human) (UniProt Q9NXF7); test: NanoBRET in HEK293 cells, Nluc-BRD2 and DCAF16-HaloTag with 618 Ligand, bortezomib; 10 umol/L compound 1l; mean of n=3
[16] = biological target: DCAF16 with HaloTag added to the C-terminal (expressed from plasmid pFC27K_DCAF16) (human) (UniProt Q9NXF7); test: NanoBRET in HEK293 cells, Nluc-BRD2 and DCAF16-HaloTag with 618 Ligand, MLN4924; 1.0 umol/L compound 3b
[17] = biological target: DCAF16 with HaloTag added to the C-terminal (expressed from plasmid pFC27K_DCAF16) (human) (UniProt Q9NXF7); test: NanoBRET in HEK293 cells, Nluc-BRD2 and DCAF16-HaloTag with 618 Ligand, bortezomib; 10 umol/L compound 3e; mean of n=3
[18] = biological target: DCAF16 with HaloTag added to the C-terminal (expressed from plasmid pFC27K_DCAF16) (human) (UniProt Q9NXF7); test: NanoBRET in HEK293 cells, Nluc-BRD2 and DCAF16-HaloTag with 618 Ligand, MLN4924; 1.0 umol/L compound 3a
[19] = biological target: DCAF16 with HaloTag added to the C-terminal (expressed from plasmid pFC27K_DCAF16) (human) (UniProt Q9NXF7); test: NanoBRET in HEK293 cells, Nluc-BRD2 and DCAF16-HaloTag with 618 Ligand, MLN4924; 1.0 umol/L compound 1l
[20] = biological target: DCAF16 with HaloTag added to the C-terminal (expressed from plasmid pFC27K_DCAF16) (human) (UniProt Q9NXF7); test: NanoBRET in HEK293 cells, Nluc-BRD2 and DCAF16-HaloTag with 618 Ligand, bortezomib; 10 umol/L compound 7o; mean of n=3
[21] = biological target: DCAF16 with HaloTag added to the C-terminal (expressed from plasmid pFC27K_DCAF16) (human) (UniProt Q9NXF7); test: NanoBRET in HEK293 cells, Nluc-BRD2 and DCAF16-HaloTag with 618 Ligand, bortezomib; 10 umol/L compound 3a; mean of n=3
[22] = biological target: DCAF16 with HaloTag added to the C-terminal (expressed from plasmid pFC27K_DCAF16) (human) (UniProt Q9NXF7); test: NanoBRET in HEK293 cells, Nluc-BRD2 and DCAF16-HaloTag with 618 Ligand, MLN4924; 1.0 umol/L compound 15a
[23] = biological target: DCAF16 with HaloTag added to the C-terminal (expressed from plasmid pFC27K_DCAF16) (human) (UniProt Q9NXF7); test: NanoBRET in HEK293 cells, Nluc-BRD2 and DCAF16-HaloTag with 618 Ligand, MLN4924; 1.0 umol/L compound 7o
[24] = biological target: DCAF16 with HaloTag added to the C-terminal (expressed from plasmid pFC27K_DCAF16) (human) (UniProt Q9NXF7); test: NanoBRET in HEK293 cells, Nluc-BRD2 and DCAF16-HaloTag with 618 Ligand, bortezomib; 10 umol/L compound 8j; mean of n=3
[25] = biological target: DCAF16 with HaloTag added to the C-terminal (expressed from plasmid pFC27K_DCAF16) (human) (UniProt Q9NXF7); test: NanoBRET in HEK293 cells, Nluc-BRD2 and DCAF16-HaloTag with 618 Ligand, bortezomib; 10 umol/L compound 3b; mean of n=3
[26] = biological target: DCAF16 with HaloTag added to the C-terminal (expressed from plasmid pFC27K_DCAF16) (human) (UniProt Q9NXF7); test: NanoBRET in HEK293 cells, Nluc-BRD2 and DCAF16-HaloTag with 618 Ligand, bortezomib; 10 umol/L compound 12c; mean of n=3
[27] = biological target: DCAF16 with HaloTag added to the C-terminal (expressed from plasmid pFC27K_DCAF16) (human) (UniProt Q9NXF7); test: NanoBRET in HEK293 cells, Nluc-BRD2 and DCAF16-HaloTag with 618 Ligand, MLN4924; 1.0 umol/L compound 8j
[28] = biological target: DCAF16 with HaloTag added to the C-terminal (expressed from plasmid pFC27K_DCAF16) (human) (UniProt Q9NXF7); test: NanoBRET in HEK293 cells, Nluc-BRD2 and DCAF16-HaloTag with 618 Ligand, MLN4924; 1.0 umol/L compound 3e
[29] = biological target: DCAF16 with HaloTag added to the C-terminal (expressed from plasmid pFC27K_DCAF16) (human) (UniProt Q9NXF7); test: NanoBRET in HEK293 cells, Nluc-BRD2 and DCAF16-HaloTag with 618 Ligand, MLN4924; 1.0 umol/L compound 12c

DCAF16 with HaloTag added to the C-terminal (expressed from plasmid pFC27K_DCAF16) (human), sequence (Q9NXF7 whole entry): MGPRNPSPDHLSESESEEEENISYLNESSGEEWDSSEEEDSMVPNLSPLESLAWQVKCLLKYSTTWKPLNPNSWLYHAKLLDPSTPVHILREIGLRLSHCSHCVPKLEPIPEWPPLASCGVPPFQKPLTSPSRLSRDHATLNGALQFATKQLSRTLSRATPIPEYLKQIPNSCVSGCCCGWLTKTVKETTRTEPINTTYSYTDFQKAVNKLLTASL

Q: For “BRD2 with an Nluc tag added to the N-terminal (expressed from plasmid pFN31A_BRD2) (from UniProt P25440 1-801)”, which BRET Ratio [1] is on record?
A: The BRET Ratio was 1.93.

Q: What about the BRET Ratio [2] of the same substance?
A: Its BRET Ratio is 6.8.

Q: What about the BRET Ratio [3] of the same substance?
A: The BRET Ratio was 7.27.

Q: And the BRET Ratio [4]?
A: Its BRET Ratio is 10.9.

Q: And the BRET Ratio [5]?
A: Its BRET Ratio is 1.51.

Q: And the BRET Ratio [6]?
A: Its BRET Ratio is 7.07.

Q: And the BRET Ratio [7]?
A: The BRET Ratio was 12.4.

Q: And the BRET Ratio [8]?
A: Its BRET Ratio is 11.6.

Q: And the BRET Ratio [9]?
A: Its BRET Ratio is 0.99.

Q: And the BRET Ratio [10]?
A: Its BRET Ratio is 6.84.

Q: And the BRET Ratio [11]?
A: Its BRET Ratio is 12.6.

Q: And the BRET Ratio [12]?
A: The BRET Ratio was 5.99.

Q: What about the BRET Ratio [13] of the same substance?
A: The BRET Ratio was 12.4.

Q: And the BRET Ratio [14]?
A: The BRET Ratio was 5.88.

Q: What about the BRET Ratio [15] of the same substance?
A: The BRET Ratio was 8.03.

Q: What about the BRET Ratio [16] of the same substance?
A: The BRET Ratio was 9.69.

Q: And the BRET Ratio [17]?
A: The BRET Ratio was 5.96.

Q: What about the BRET Ratio [18] of the same substance?
A: The BRET Ratio was 14.5.

Q: And the BRET Ratio [19]?
A: Its BRET Ratio is 14.9.

Q: What about the BRET Ratio [20] of the same substance?
A: The BRET Ratio was 6.69.

Q: And the BRET Ratio [21]?
A: Its BRET Ratio is 8.51.

Q: What about the BRET Ratio [22] of the same substance?
A: The BRET Ratio was 9.59.

Q: And the BRET Ratio [23]?
A: Its BRET Ratio is 13.

Q: What about the BRET Ratio [24] of the same substance?
A: The BRET Ratio was 7.07.

Q: What about the BRET Ratio [25] of the same substance?
A: The BRET Ratio was 6.06.

Q: What about the BRET Ratio [26] of the same substance?
A: The BRET Ratio was 7.6.

Q: What about the BRET Ratio [27] of the same substance?
A: Its BRET Ratio is 11.9.

Q: What about the BRET Ratio [28] of the same substance?
A: Its BRET Ratio is 9.58.

Q: And the BRET Ratio [29]?
A: Its BRET Ratio is 13.2.
